Here are results for four molecules from patent US20180371054A1 (published 2018).

For one experiment, the target named is CD22 (human, UniProt P20273 20-687). The experiment is described as follows: Biacore SPR. Background: SPR reads the build-up and loss of mass on a sensor chip optically.
The target in experiment [1] is T1, CD19 (human, UniProt P15391 20-291).
T1 chain: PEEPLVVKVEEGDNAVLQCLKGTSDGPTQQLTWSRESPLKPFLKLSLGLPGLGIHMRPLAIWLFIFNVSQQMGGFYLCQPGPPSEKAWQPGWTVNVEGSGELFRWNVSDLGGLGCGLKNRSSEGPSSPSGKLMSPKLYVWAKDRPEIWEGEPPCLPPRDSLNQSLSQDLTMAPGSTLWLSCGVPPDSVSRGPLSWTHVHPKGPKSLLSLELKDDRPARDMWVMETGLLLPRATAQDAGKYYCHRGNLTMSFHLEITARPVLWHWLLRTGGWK
As to the kind of experiment: binding kinetics.

Experiment [2] has as its target T1, CD19. The experiment is described as follows: Biacore SPR.

B1: Humanised CD22ALAb scFv (scFv)
scFv: EVQLVESGAEVKKPGSSVKVSCKASGYTFTNYWINWVRQAPGQGLEWIGNIYPSDSFTNYNQKFKDRATLTVDKSTSTAYLELRNLRSDDTAVYYCTRDTQERSWYFDVWGQGTLVTVSSDIVMTQSPATLSVSPGERATLSCRSSQSLVHSNGNTYLHWYQQKPGQAPRLLIYKVSNRFSGVPARFSGSGSGVEFTLTISSLQSEDFAVYYCSQSTHVPWTFGQGTRLEIK
In turn, B1 had a Kd with CD22 of 32 nM.

B2: CD19ALAb (antibody)
chain: QVQLQQSGAELVRPGSSVKISCKASGYAFSSYWMNWVKQRPGQGLEWIGQIWPGDGDTNYNGKFKGKATLTADESSSTAYMQLSSLASEDSAVYFCARRETTTVGRYYYAMDYWGQGTTVTVSSDIQLTQSPASLAVSLGQRATISCKASQSVDYDGDSYLNWYQQIPGQPPKLLIYDASNLVSGIPPRFSGSGSGTDFTLNIHPVEKVDAATYHCQQSTEDPWTFGGGTKLEIK
In the experiment with CD19 [1], B2 gave a Kd of 1.1 nM.

B3: Murine CD19ALAb scFv (scFv)
scFv: QVQLQQSGAELVRPGSSVKISCKASGYAFSSYWMNWVKQRPGQGLEWIGQIWPGDGDTNYNGKFKGKATLTADESSSTAYMQLSSLASEDSAVYFCARRETTTVGRYYYAMDYWGQGTTVTVSSDIQLTQSPASLAVSLGQRATISCKASQSVDYDGDSYLNWYQQIPGQPPKLLIYDASNLVSGIPPRFSGSGSGTDFTLNIHPVEKVDAATYHCQQSTEDPWTFGGGTKLEIK
In the case of B3, the Kd with CD19 [2] was found to be 1.85 nM.

B4: Murine CD22ALAb scFv (scFv)
scFv: QVQLQQPGAELVRPGASVKLSCKASGYTFTNYWINWVKQRPGQGLEWIGNIYPSDSFTNYNQKFKDKATLTVDKSSSTAYMQLSSPTSEDSAVYYCTRDTQERSWYFDVWGAGTTVTVSSDVVMTQTPLSLPVSLGDQASISCRSSQSLVHSNGNTYLHWYLQKPGQSPKLLIYKVSNRFSGVPDRFSGSGSGTDFTLKISRVEAEDLGLYFCSQSTHVPWTFGGGTKLEIK
In the experiment with CD22, B4 came in with a Kd of 38 nM.

By Kd is commonly meant the free concentration of one partner at which half of the binding sites on the other are occupied at equilibrium, for simple one-to-one binding. A high value points to weaker binding.
